Data set [1] relates to oligopeptide linker containing the urokinase-specific cleavage sequence SGRSA (SEQ ID NO: 2).
For data set [2], the system named is urokinase consensus sequence linker DGGSGRSAGGGC (SEQ ID NO: 68) linking Fe/Fe3O4 nanoplatforms.
Data set [3] relates to T1, GAGSGRSAGAG linkage (SEQ ID NO: 66, deleted by 1 residue at each of the N-terminus and C-terminus) between nanoparticle and non-metalated TCPP.
T1 sequence: GAGSGRSAGAG

Data set [4] concerns T2, GAGSGRSAGA oligopeptide sequence (SEQ ID NO: 66, deleted at the N-terminus by 1 residue and the C-terminus by 2 residues) linking Fe/Fe3O4/ASOX/stealth-nanoparticles into oligomers.
T2 sequence: GAGSGRSAGA

Data set [5] relates to T3, cleavage sequence DGGGSGRSAGGGD (SEQ ID NO: 65) coupled to TCPP and to stealth-coated Fe/Fe3O4 nanoparticles.
T3 sequence: DGGGSGRSAGGGD

For data set [6], the system named is T4, cleavage sequence for urokinase DGAGSGRSAGAGD (SEQ ID NO: 66) linking porphyrin-labeled stealth coated Fe/Fe3O4 nanoparticles.
T4 sequence: DGAGSGRSAGAGD

Chain of urokinase in rat urine (chain, as listed by the source): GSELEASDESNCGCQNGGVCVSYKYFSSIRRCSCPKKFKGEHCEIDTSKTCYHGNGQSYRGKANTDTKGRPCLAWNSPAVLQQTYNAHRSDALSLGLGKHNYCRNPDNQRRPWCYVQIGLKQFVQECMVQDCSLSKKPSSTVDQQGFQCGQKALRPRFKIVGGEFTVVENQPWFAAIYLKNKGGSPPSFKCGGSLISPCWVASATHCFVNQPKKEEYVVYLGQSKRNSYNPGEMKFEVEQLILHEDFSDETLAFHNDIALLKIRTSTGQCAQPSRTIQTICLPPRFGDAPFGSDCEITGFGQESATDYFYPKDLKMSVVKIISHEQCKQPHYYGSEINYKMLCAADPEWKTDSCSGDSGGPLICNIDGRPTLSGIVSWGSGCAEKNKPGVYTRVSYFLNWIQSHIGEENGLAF
Chain of urokinase in canine urine (chain, as listed by the source): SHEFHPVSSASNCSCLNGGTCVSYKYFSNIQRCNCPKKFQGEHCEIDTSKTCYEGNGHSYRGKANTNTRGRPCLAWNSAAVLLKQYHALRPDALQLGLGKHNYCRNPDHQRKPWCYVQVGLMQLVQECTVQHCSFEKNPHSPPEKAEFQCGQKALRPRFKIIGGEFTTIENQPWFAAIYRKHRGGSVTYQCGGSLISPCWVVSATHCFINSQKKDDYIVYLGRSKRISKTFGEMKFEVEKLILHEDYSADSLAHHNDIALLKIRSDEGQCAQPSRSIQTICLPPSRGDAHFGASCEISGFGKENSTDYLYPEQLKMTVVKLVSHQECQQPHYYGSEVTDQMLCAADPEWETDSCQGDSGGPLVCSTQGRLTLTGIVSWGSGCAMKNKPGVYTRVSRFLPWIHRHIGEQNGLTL

As to urokinase in rat urine, in data set [1], the “luminescence of TCPP released from the nanoplatform, 36 day urine” value is given as “the luminescence from TCPP increased steadily over time for the 36 day urine” and the “luminescence of TCPP released from the nanoplatform, control (5 day urine)” value is reported as “The control (5 day urine) did not demonstrate a significant increase in luminescence”. Also, the “UV/Vis backscattering spectrum of the nanoparticle-dimer over 120 minutes, rat urine (estimated urokinase 5×10^-10 M)” value in data set [2] was “The change in the optical properties is clearly discernible upon the cleavage of the oligopeptides-linker by urokinase”.

urokinase in canine urine: in data set [1], the “fluorescence enhancement over time, Sample B (dog undergoing chemotherapy)” value is reported as “had a detectable enhancement in fluorescence than the control (Sample A), but was still much lower than Sample C” and the “fluorescence enhancement over time, Sample C (dog just diagnosed with cancer)” value is recorded as “showed a rapid increase in fluorescence”.

Consider “urokinase (Sigma Aldrich, St. Louis, Mo.)”, for which, in data set [3], the fluorescence lifetime τ1, Fe/Fe3O4-linkage-TCPP plus urokinase (1×10^-7 M) amounted to 1.39 ns; the fluorescence lifetime τ1, Fe/Fe3O4/ASOX/Au-linkage-TCPP plus urokinase (1×10^-7 M) was determined as 1.47 ns; the fluorescence lifetime τ2, Fe/Fe3O4-linkage-TCPP plus urokinase (1×10^-7 M) was found to be 30 ns; the fluorescence lifetime τ2, Fe/Fe3O4/ASOX/Au-linkage-TCPP plus urokinase (1×10^-7 M) is 29.3 ns. In addition, in data set [3], the “overall fluorescence enhancement, 10 min. after urokinase was added” value is listed as “The overall fluorescence enhancement of this system was approx. 75 (10 min. after urokinase was added)”; the relative contribution f1, Fe/Fe3O4-linkage-TCPP plus urokinase (1×10^-7 M) amounted to 78; the relative contribution f1, Fe/Fe3O4/ASOX/Au-linkage-TCPP plus urokinase (1×10^-7 M) worked out at 80; the relative contribution f2, Fe/Fe3O4-linkage-TCPP plus urokinase (1×10^-7 M) came out at 22. Further, in data set [3], the relative contribution f2, Fe/Fe3O4/ASOX/Au-linkage-TCPP plus urokinase (1×10^-7 M) is 20. In addition, in data set [4], the “T1 of H2O 10 minutes after adding 1×10^-14 mol urokinase per ml (3.004 seconds before)” value is “After 10 minutes, T1 had decreased to 2.003 seconds” and the “T2 of H2O 10 minutes after adding 1×10^-14 mol urokinase per ml (0.07579 seconds before)” value was “T2 had increased to 0.1334 seconds”. In data set [1], the “T1 relaxivity r1 after protease cleavage of the linker” value is given as “r1 increased slightly to 180±20 mM s^-1” and the “T2 relaxivity r2 after protease cleavage of the linker” value is “r2 increased to -2,350±250 mM s^-1”. In addition, in data set [5], the “optical extinction (absorption + scattering) over 40 min, urokinase 1×10^-10 M” value is “the observable change of the extinction is caused by the change in scattering once the oligopeptide-tether is cleaved by the enzyme” and the “signal intensity at 440 nm divided by signal intensity at 600 nm vs. time” value was “a linear slope has been obtained”. In data set [6], the r2/r1 (MRI relaxivity ratio) at t = 0 min is -27.6, the r2/r1 (MRI relaxivity ratio) at t = 5 min is -21.9, the r2/r1 (MRI relaxivity ratio) at t = 10 min was -19.6 and the r2/r1 (MRI relaxivity ratio) at t = 15 min is -16.8. Besides, in data set [6], the r2/r1 (MRI relaxivity ratio) at t = 20 min is -16.5, the r2/r1 (MRI relaxivity ratio) at t = 25 min is -15.8, the r2/r1 (MRI relaxivity ratio) at t = 30 min is -15.3 and the r2/r1 (MRI relaxivity ratio) at t = 40 min is -14.8. In data set [6], the r2/r1 (MRI relaxivity ratio) at t = 50 min was -14.1 and the r2/r1 (MRI relaxivity ratio) at t = 60 min was -13.5.
